Test results reported in US9845340B2, “Peptides that specifically bind HGF receptor (cMet) and uses thereof” (Dyax Corp., priority 2003, dated 2017).

Assays:
cMet-Fc fusion protein = cMet-Fc fusion protein (Homo sapiens, UniProt P08581); assay: Protein phage ELISA: peptide-displaying phage binding to soluble cMet-Fc versus TRAIL-Fc; conditions: phage isolate; cMet-Fc vs. TRAIL-Fc
Summary of the method: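 Phage displaying selected peptides were incubated 2 h at room temperature on wells coated with 0.5 μg/mL cMet-Fc, with TRAIL-Fc coating as the unrelated-Fc specificity control.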

[1] = target: T1, 3T3 cells that over-express human cMet (Homo sapiens, UniProt P08581); assay: Whole cell ELISA of peptide-displaying phage; assay type: cell-based; conditions: phage isolate; 3T3 cells expressing human cMet vs. non-expressing 3T3 cells
T1 construct: expressed in transfected cells; host or cells: 3T3 cells
Summary of the method: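 Phage displaying peptides, pre-blocked 1 h at 37 °C, incubated 1 h at RT on glutaraldehyde-fixed (0.1%, 12 min, 37 °C) cMet-overexpressing 3T3 cells (10^5 per well). Binding read out by HRP anti-M13 antibody after PBST washing.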

Sequence of cMet-Fc fusion protein (P08581 25-307 limits assumed): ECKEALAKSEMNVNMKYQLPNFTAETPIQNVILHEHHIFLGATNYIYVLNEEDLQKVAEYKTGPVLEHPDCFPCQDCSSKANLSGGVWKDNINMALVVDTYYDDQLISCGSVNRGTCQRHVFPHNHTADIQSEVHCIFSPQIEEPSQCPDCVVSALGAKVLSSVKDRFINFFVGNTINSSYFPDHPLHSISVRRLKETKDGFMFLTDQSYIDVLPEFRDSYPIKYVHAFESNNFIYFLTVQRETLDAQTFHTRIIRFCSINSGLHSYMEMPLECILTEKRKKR
Sequence of cMet-Fc fusion protein (P08581 with tags, fused parts or gaps limits assumed): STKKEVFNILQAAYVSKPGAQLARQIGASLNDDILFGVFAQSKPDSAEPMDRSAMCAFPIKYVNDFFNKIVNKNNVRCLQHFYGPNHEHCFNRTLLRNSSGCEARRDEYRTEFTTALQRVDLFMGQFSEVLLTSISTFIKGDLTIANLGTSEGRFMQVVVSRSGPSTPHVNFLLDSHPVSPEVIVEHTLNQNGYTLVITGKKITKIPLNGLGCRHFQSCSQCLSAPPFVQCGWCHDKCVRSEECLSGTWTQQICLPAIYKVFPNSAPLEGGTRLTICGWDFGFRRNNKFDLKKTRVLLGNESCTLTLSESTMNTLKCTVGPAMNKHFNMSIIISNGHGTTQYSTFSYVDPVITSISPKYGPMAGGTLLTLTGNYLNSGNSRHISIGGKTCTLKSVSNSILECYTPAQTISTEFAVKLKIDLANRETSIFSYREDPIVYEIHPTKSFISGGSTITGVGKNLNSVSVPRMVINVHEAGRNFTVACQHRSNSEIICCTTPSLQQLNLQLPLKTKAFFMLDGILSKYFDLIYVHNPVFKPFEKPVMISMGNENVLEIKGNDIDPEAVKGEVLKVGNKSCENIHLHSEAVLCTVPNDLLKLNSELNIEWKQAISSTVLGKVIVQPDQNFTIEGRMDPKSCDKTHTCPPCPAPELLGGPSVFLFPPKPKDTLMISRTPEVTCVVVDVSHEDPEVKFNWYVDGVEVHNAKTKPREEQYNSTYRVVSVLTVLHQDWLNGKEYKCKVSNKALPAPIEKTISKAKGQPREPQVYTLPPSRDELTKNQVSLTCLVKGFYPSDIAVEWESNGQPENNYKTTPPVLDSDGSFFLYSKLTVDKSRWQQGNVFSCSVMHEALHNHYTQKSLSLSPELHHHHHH
T1 sequence (P08581 25-1390): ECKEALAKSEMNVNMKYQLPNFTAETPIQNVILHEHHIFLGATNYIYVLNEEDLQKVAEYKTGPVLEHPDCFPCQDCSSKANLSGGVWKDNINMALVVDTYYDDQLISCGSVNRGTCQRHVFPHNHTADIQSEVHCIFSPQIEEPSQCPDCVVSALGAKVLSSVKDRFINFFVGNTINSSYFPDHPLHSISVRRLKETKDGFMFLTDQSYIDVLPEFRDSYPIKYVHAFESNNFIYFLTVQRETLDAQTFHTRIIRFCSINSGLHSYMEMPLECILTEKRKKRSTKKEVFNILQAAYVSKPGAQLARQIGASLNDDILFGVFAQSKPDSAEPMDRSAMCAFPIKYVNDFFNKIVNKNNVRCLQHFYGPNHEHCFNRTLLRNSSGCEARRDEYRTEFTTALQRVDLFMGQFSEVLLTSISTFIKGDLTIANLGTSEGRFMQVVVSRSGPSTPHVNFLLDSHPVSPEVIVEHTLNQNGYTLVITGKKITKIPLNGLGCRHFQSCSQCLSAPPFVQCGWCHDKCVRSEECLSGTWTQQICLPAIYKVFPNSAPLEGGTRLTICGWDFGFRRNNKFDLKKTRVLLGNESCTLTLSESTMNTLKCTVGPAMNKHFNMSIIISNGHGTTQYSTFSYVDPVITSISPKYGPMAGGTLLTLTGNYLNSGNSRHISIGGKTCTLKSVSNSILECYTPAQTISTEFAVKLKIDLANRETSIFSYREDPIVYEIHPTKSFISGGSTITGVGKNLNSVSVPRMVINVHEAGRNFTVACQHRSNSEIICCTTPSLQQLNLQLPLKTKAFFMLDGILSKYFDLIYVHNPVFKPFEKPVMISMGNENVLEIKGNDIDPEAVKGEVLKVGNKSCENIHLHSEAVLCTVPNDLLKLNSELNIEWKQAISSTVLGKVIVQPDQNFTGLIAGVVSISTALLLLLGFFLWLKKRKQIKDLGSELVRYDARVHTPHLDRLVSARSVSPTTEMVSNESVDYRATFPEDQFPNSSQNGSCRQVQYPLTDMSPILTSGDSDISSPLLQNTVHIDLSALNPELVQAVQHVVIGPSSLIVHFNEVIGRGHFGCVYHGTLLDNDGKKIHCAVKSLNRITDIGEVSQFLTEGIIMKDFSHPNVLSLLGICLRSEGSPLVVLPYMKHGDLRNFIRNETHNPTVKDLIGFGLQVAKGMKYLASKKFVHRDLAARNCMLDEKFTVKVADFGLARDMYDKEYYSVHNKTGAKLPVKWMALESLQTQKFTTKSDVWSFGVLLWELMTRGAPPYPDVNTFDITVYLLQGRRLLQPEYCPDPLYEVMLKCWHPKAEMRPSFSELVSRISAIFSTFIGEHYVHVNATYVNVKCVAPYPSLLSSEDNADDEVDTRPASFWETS

| Compound | Protein ELISA (cMet-Fc fusion protein) [fold over background] | WC ELISA [1] [fold over background] |
| --- | --- | --- |
| AGETFCSGWPTFECMQWGT (Synthetically generated cMet-binding peptide sequence) [SEQ ID NO: 095] | 16.2 | 1.23 |
| GSFNICPYQWCTLWAP (Synthetically generated cMet-binding peptide sequence) [SEQ ID NO: 010] | 3.0 | 1.37 |
| GSAGWCYTMNYVDQLCTYMAP (Synthetically generated cMet-binding peptide sequence) [SEQ ID NO: 387] | 3.7 | 1.43 |
| AGGFACGPPWDICWMFGT (Synthetically generated cMet-binding peptide sequence) [SEQ ID NO: 011] | 5.6 | 1.30 |
| AGYPECKDNYHWCEWKGT (Synthetically generated cMet-binding peptide sequence) [SEQ ID NO: 024] | 14.5 | 1.30 |
| AGNYWCSGPPSFICHAVGT (Synthetically generated cMet-binding peptide sequence) [SEQ ID NO: 091] | 8.9 | 1.27 |
| AGTWHCAGPPWFTCYMDGT (Synthetically generated cMet-binding peptide sequence) [SEQ ID NO: 069] | 9.0 | 1.30 |
| AGSSPCKGWPTFECYFYGT (Synthetically generated cMet-binding peptide sequence) [SEQ ID NO: 087] | 4.8 | 1.30 |
| GDGFLCRWENGWCEFWDP (Synthetically generated cMet-binding peptide sequence) [SEQ ID NO: 047] | 4.7 | 1.30 |
| AGFVNCKGPPTFECILTGT (Synthetically generated cMet-binding peptide sequence) [SEQ ID NO: 057] | 12.3 | 1.23 |
| GSYYDCREFQCNKPAP (Synthetically generated cMet-binding peptide sequence) [SEQ ID NO: 002] | 4.4 | 1.33 |
| AGLLGCWDMPMECTGEGT (Synthetically generated cMet-binding peptide sequence) [SEQ ID NO: 036] | 3.6 | 1.27 |

More lines, now with the values ahead:

| Protein ELISA (cMet-Fc fusion protein) [fold over background] | WC ELISA [1] [fold over background] | Compound |
| --- | --- | --- |
| 3.9 | 1.30 | CSCC[C@H](NC(=O)[C@H](Cc1ccccc1)NC(=O)[C@H](CCC(N)=O)NC(=O)[C@@H](NC(=O)[C@@H]1CCCN1C(=O)[C@H](CCSC)NC(=O)[C@H](Cc1c[nH]c2ccccc12)NC(=O)[C@@H](NC(=O)[C@H](CC(=O)O)NC(=O)[C@H](CCSC)NC(=O)[C@H](CCC(N)=O)NC(=O)[C@H](CCCNC(=N)N)NC(=O)[C@H](CCC(N)=O)NC(=O)[C@@H](NC(=O)[C@H](CO)NC(=O)[C@H](Cc1c[nH]cn1)NC(=O)[C@H](CCC(N)=O)NC(=O)[C@H](C)NC(C)=O)C(C)C)C(C)C)C(C)C)C(=O)N[C@@H](C)C(=O)NCC(=O)N[C@@H](Cc1ccccc1)C(=O)N[C@H](C(=O)NCC(=O)NCC(=O)NCC(=O)N[C@@H](CCCCNC(=O)c1ccc2c(c1)C(=O)OC21c2ccc(O)cc2Oc2cc(O)ccc21)C(N)=O)[C@@H](C)O [SEQ ID NO: 467] |
| 4.3 | 1.20 | AQFDRYWHFAWMDVSFSSGQSG (Synthetically generated cMet-binding peptide sequence) [SEQ ID NO: 465] |
| 3.8 | 1.20 | AQAYEWWADESIFNHGYYWGHQ (Synthetically generated cMet-binding peptide sequence) [SEQ ID NO: 470] |
| 23.7 | 1.47 | GDLLVCKFDDKFWTETCEWADP (Synthetically generated cMet-binding peptide sequence) [SEQ ID NO: 392] |
| 7.0 | 1.17 | CC(=O)N[C@@H](C)C(=O)N[C@@H](CCC(N)=O)C(=O)N[C@@H](CCC(N)=O)C(=O)N[C@@H](C)C(=O)N[C@@H](CO)C(=O)N[C@@H](CCCNC(=N)N)C(=O)N[C@@H](Cc1ccccc1)C(=O)N[C@H](C(=O)N[C@@H](Cc1ccccc1)C(=O)N[C@H](C(=O)N[C@@H](CC(=O)O)C(=O)NCC(=O)N[C@@H](CC(=O)O)C(=O)N[C@@H](CO)C(=O)N[C@@H](Cc1ccc(O)cc1)C(=O)N[C@@H](Cc1c[nH]c2ccccc12)C(=O)N[C@@H](Cc1c[nH]c2ccccc12)C(=O)N[C@@H](Cc1ccccc1)C(=O)N[C@@H](CCC(=O)O)C(=O)N[C@@H](CC(=O)O)C(=O)N[C@@H](Cc1ccccc1)C(=O)NCC(=O)NCC(=O)NCC(=O)N[C@@H](CCCCNC(=O)c1ccc2c(c1)C(=O)OC21c2ccc(O)cc2Oc2cc(O)ccc21)C(N)=O)[C@@H](C)O)[C@@H](C)O [SEQ ID NO: 449] |
| 3.4 | 1.30 | GDASMCYDGLALRWDQCWPHDP (Synthetically generated cMet-binding peptide sequence) [SEQ ID NO: 404] |
| 3.0 | 1.17 | AQVGESLDDGWTFFSDKWFDFF (Synthetically generated cMet-binding peptide sequence) [SEQ ID NO: 485] |
| 5.0 | 1.30 | CC(=O)N[C@@H](C)C(=O)N[C@@H](CCC(N)=O)C(=O)N[C@@H](CC(=O)O)C(=O)N[C@@H](CC(C)C)C(=O)N[C@@H](CCCCN)C(=O)N1CCC[C@H]1C(=O)N[C@@H](Cc1c[nH]c2ccccc12)C(=O)N[C@H](C(=O)N[C@@H](C)C(=O)NCC(=O)N[C@@H](Cc1c[nH]c2ccccc12)C(=O)N[C@@H](CCC(=O)O)C(=O)N1CCC[C@H]1C(=O)N1CCC[C@H]1C(=O)N[C@@H](Cc1c[nH]c2ccccc12)C(=O)N[C@@H](CC(C)C)C(=O)N[C@@H](Cc1c[nH]c2ccccc12)C(=O)N[C@H](C(=O)N[C@@H](CC(=O)O)C(=O)N[C@@H](CCCNC(=N)N)C(=O)NCC(=O)N1CCC[C@H]1C(=O)NCC(=O)NCC(=O)NCC(=O)N[C@@H](CCCCNC(=O)c1ccc2c(c1)C(=O)OC21c2ccc(O)cc2Oc2cc(O)ccc21)C(N)=O)[C@@H](C)O)[C@@H](C)O [SEQ ID NO: 461] |
